{"source": "paper PMC7972841", "about": "“In Vivo Molecular Imaging of the Efficacy of Aminopeptidase N (APN/CD13) Receptor Inhibitor Treatment on Experimental Tumors Using ^68Ga-NODAGA-c(NGR) Peptide” (BioMed Research International, 2021)", "key": {"in vivo [1]": {"test": "in vivo", "conditions": "CB17 SCID, mouse, iv, 5.5 MBq, total radioactivity", "procedure": "(§2) For the actinonin-treated groups, 5 mg/kg actinonin (dissolved in 10 μL abs. EtOH and diluted with 140 μL HumAqua (aqua destillata, TEVA, Debrecen, Hungary)) was administrated daily by intraperitoneal injection for 7 days. The control-untreated group was injected intraperitoneally with 150 μL saline for 7 days.\n(§3) After in vivo PET imaging, control-untreated tumor-bearing and treated tumor-bearing animals were euthanized with 5% Forane and dissected, and blood, urine, and samples were taken from the liver, spleen, kidney, small intestine, large intestine, stomach, heart, lungs, tumors, muscles, and fat. The weight and radioactivity of the selected organs and tissues were measured with a calibrated gamma counter (Hewlett Packard Cobra II Autogama Gamma Counter). The uptake of the APN/CD13-specific ^68Ga-NODAGA-c(NGR) radiotracer was expressed as %ID/g tissue."}, "in vivo [2]": {"test": "in vivo", "conditions": "C57BL/6, mouse, iv, 5.5 MBq, total radioactivity, SUVmean of tumor", "procedure": "(§4) For experimental tumor induction, mice were anaesthetized with a dedicated small animal anaesthesia device (Tec3 Isoflurane Vaporizer, Eickemeyer Veterinary Equipment, UK) using 3% isoflurane (Forane, AbbVie), 0.4 L/min O2, and 1.4 L/min N2O. After depilation of the left shoulder area of the animals, CB17 SCID mice (n = 30) were injected subcutaneously with 1.5 × 10^6 HT1080 (human fibrosarcoma) cells in 150 μL (1/3 part of Matrigel and 2/3 part of saline), and C57BL/6 mice (n = 30) were injected subcutaneously with 3 × 10^6 B16-F10 cells in 150 μL of sterile saline. […] The tumor size was calculated using the following formula: (largest diameter × smallest diameter^2)/2.\nas §2\n(§5) Five and ten days after tumor cell implantation, control-untreated tumor-bearing and treated tumor-bearing animals were anaesthetized with 3% isoflurane and were injected with 5.5 ± 0.2 MBq APN/CD13-specific ^68Ga-NODAGA-c(NGR) in 150 μL saline via the lateral tail vein. After 90 min incubation time, 20 min static PET scans were performed from the tumorous area using the preclinical miniPET device (University of Debrecen, Faculty of Medicine, Department of Medical Imaging, Division of Nuclear Medicine and Translational Imaging). After 3D OSEM-LOR image reconstruction, volumes of interest (VOIs) were manually drawn around the examined regions using the BrainCAD image analysis software and quantitative standardized uptake values (SUVs) were calculated as follows: SUV = [VOI activity (Bq/mL)]/[injected activity (Bq)/animal weight (g)], assuming a density of 1 g/mL. Tumor-to-muscle (T/M) ratios were calculated from the activity of the tumor and background (muscle)."}, "in vivo [3]": {"test": "in vivo", "conditions": "C57BL/6, mouse, iv, 5.5 MBq, total radioactivity, tracer uptake", "procedure": "as §2, §3"}, "[4]": {"parameters": "species or system mice", "conditions": "mouse, in vivo", "procedure": "as §3"}, "HT1080 tumors (APN/CD13)": {"test_system": "HT1080 tumors (APN/CD13)", "conditions": "for T/M SUVmean ratio of treated tumor: 90 min after iv tracer; for ^68Ga-NODAGA-c(NGR) SUVmean of treated tumor: PET 90 min after iv tracer, mean ± SD", "procedure": "as §4, §2, §5"}, "in vitro": {"test": "in vitro", "format": "in vitro ADME", "conditions": "mouse, serum", "protocol": "5 mg (8.6 μmol) c[KNGRE]-NH2 peptide was dissolved in 0.9 mL 0.1 mol/dm^3 Na2CO3 buffer (pH = 8.42), then 7.5 mg (10.2 μmol) NODAGA-NHS ester dissolved in 0.1 mL DMSO was added to the peptide. The reaction was mixed for 24 hours at room temperature. NODAGA-c(NGR) was purified with semipreparative HPLC (KNAUER) and freeze-dried. For the radiolabeling procedure, the in vitro serum stability, and the determination of logp value, the same protocol was used as it was described earlier by our research group.\nFor the determination of the enzymatic stability, a stock solution was prepared from 100 μL of ^68Ga-NODAGA-c(NGR) solution and 1 mL PBS. 20 μL from this solution was introduced to 480 μL mouse serum (Sigma-Aldrich, St. Louis, Missouri, USA), and the mixture was tempered at 37°C. After 0, 30, 60, 90, and 120 min incubation time, 50 μL sample was taken and 50 μL abs. EtOH was added to the aliquots. Samples were centrifuged (20,000 rpm, 5 min), the supernatant was removed and diluted with the eluent of HPLC, then the analytical measurement was prepared."}, "in vivo [5]": {"test": "in vivo", "conditions": "CB17 SCID, mouse, iv, 5.5 MBq, total radioactivity, SUVmean of tumor", "procedure": "as §4, §2, §5"}, "[6]": {"test_system": "B16-F10 tumors (APN/CD13)", "conditions": "for T/M ratio of treated tumor: 90 min after iv tracer; for ^68Ga-NODAGA-c(NGR) SUVmean of treated tumor: PET 90 min after iv tracer, mean ± SD", "procedure": "as §4, §2, §5"}, "B16-F10 tumor": {"test_system": "B16-F10 tumor", "test": "Ex vivo biodistribution, B16-F10 tumor-bearing mice", "conditions": "B16-F10 tumor-bearing mice treated ip daily (bestatin 15 mg/kg or actinonin 5 mg/kg), mean±SD, n=10", "procedure": "as §2, §3"}, "AKR tumor": {"test_system": "AKR tumor", "conditions": "5 mg/kg, syngeneic AKR tumor-bearing mice; cited from earlier work", "from_the_text": "(§1) In our further in vivo experiments, the efficacy of the actinonin and bestatin treatments was investigated on experimental tumors. The antitumor effect of actinonin was investigated earlier by Xu and coworkers on human (HL60, NB4) and murine (AKR) leukemia and lymphoma (RAJI, DAUDI) cell lines. […] In in vivo studies, syng ..."}, "[7]": {"test_system": "human (HL60, NB4) and murine (AKR) leukemia cell lines", "conditions": "in vitro; cited from earlier work", "from_the_text": "as §1"}, "human lymphoma": {"test_system": "human lymphoma", "conditions": "subcutaneous human lymphoma-bearing nude mice; cited from earlier work", "from_the_text": "as §1"}, "[8]": {"test_system": "lymphoma (RAJI, DAUDI) cell lines", "conditions": "in vitro; cited from earlier work", "from_the_text": "as §1"}, "APN/CD13": {"test_system": "APN/CD13", "test": "Western blot analysis of APN/CD13 in B16-F10 tumors", "format": "in vivo, mouse", "conditions": "B16-F10 melanoma after treatment, densitometry", "procedure": "For western blot analysis, frozen tissue samples were pulverized under liquid nitrogen, and tissue homogenization was performed with TissueLyser II (QIAGEN). Tumors were lysed in a RIPA buffer. After protein isolation, protein samples (10-40 μg) were separated on 10% SDS polyacrylamide gels and electrotransferred onto nitrocellulose membranes. After blocking, the membranes were incubated with primary anti-human and anti-mouse CD13 (from Santa-Cruz Biotechnology, Inc., USA) antibody at the dilution of 1 : 1000 overnight at 4°C. After washing, the membranes were probed with IgG HRP conjugated secondary antibody (Cell Signaling Technology, Inc., Beverly, MA, 1 : 2000). Beta-actin was used as a loading control. Bands were visualized by enhanced chemiluminescence reaction. Densitometry was performed using the ImageJ software.\nFor western blot analysis frozen tissue samples were pulverized under liquid nitrogen and tissue homogenization was performed with TissueLyser II (QIAGEN). Cells were lysed in RIPA buffer (50 mM Tris, 150 mM NaCl, 0.1 % SDS, 1 % TritonX 100, 0.5 % sodium deoxycolate, 1 mM EDTA, 1 mM Na3VO4, 1 mM NaF, 1 mM PMSF, protease inhibitor cocktail). […] Upon densitometry, negative control samples (mouse large intestine) were considered to be 1 and values are expressed as fold change relative to controls to reduce unwanted variations. […]"}, "HT1080 tumor": {"test_system": "HT1080 tumor", "test": "Ex vivo biodistribution, HT1080 tumor-bearing mice", "conditions": "HT1080 tumor-bearing mice treated ip daily (bestatin 15 mg/kg or actinonin 5 mg/kg), mean±SD, n=10", "procedure": "as §2, §3"}, "HT1080 tumors": {"test_system": "HT1080 tumors", "test": "Tumor volume, HT1080 tumors", "format": "in vivo, CB17 SCID mice", "conditions": "caliper, n = 10/group", "procedure": "(§6) For experimental tumor induction, mice were anaesthetized with a dedicated small animal anaesthesia device (Tec3 Isoflurane Vaporizer, Eickemeyer Veterinary Equipment, UK) using 3% isoflurane (Forane, AbbVie), 0.4 L/min O2, and 1.4 L/min N2O. After depilation of the left shoulder area of the animals, CB17 SCID mice (n = 30) were injected subcutaneously with 1.5 × 10^6 HT1080 (human fibrosarcoma) cells in 150 μL (1/3 part of Matrigel and 2/3 part of saline), and C57BL/6 mice (n = 30) were injected subcutaneously with 3 × 10^6 B16-F10 cells in 150 μL of sterile saline. Tumor growth was assessed by caliper measurements by the same experienced researcher. The tumor size was calculated using the following formula: (largest diameter × smallest diameter^2)/2.\nas §2"}, "B16-F10 tumors": {"test_system": "B16-F10 tumors", "test": "Tumor volume, B16-F10 tumors", "format": "in vivo, C57BL/6 mice", "conditions": "caliper, n = 10/group", "procedure": "as §6, §2"}, "[9]": {"conditions": "HT1080, day 5, bestatin 15 mg/kg or actinonin 5 mg/kg ip daily"}, "[10]": {"conditions": "HT1080, day 10, bestatin 15 mg/kg or actinonin 5 mg/kg ip daily 7 days"}, "[11]": {"conditions": "B16-F10, day 5, bestatin 15 mg/kg or actinonin 5 mg/kg ip daily"}, "[12]": {"conditions": "B16-F10, day 10, bestatin 15 mg/kg or actinonin 5 mg/kg ip daily 7 days"}}, "note": "Read-outs that look alike come from different tables or passages of the source. Where a SMILES comes first, the peptide text is derived from it. Bridges are numbered along the chain shown (N, C = ends). The star is where a group is joined. NODAGA = O=C(O)CN1CCN(CC(=O)O)CCN(C(CCC(=O)*)C(=O)O)CC1"}
{"smiles": "N=C(N)NCCC[C@@H]1NC(=O)CNC(=O)[C@H](CC(N)=O)NC(=O)[C@H](CCCCNC(=O)CCC(C(=O)O)N2CCN(CC(=O)O)CCN(CC(=O)O)CC2)NC(=O)CC[C@@H](C(N)=O)NC1=O", "note": "(some centres unmarked) [^68Ga-NODAGA-c(NGR), metal not drawn] (K(NODAGA)NGRE-NH2; lactam N-5 (inferred))", "values": [{"measurement": "tissue uptake at 1.5 h", "setting": "in vivo [1]; T/M ID%/g (%ID/g tumor/%ID/g muscle)", "value": "5.3 ± 0.56", "unit": "%ID/g"}, {"measurement": "tissue uptake at 1.5 h", "setting": "in vivo [1]; tracer uptake, blood", "value": "0.04 ± 0.01", "unit": "%ID/g"}, {"measurement": "tissue uptake at 1.5 h", "setting": "in vivo [1]; tracer uptake, fat", "value": "0.02 ± 0.01", "unit": "%ID/g"}, {"measurement": "tissue uptake at 1.5 h", "setting": "in vivo [1]; tracer uptake, heart", "value": "0.03 ± 0.01", "unit": "%ID/g"}, {"measurement": "tissue uptake at 1.5 h", "setting": "in vivo [1]; tracer uptake, kidney", "value": "1.35 ± 0.45", "unit": "%ID/g"}, {"measurement": "tissue uptake at 1.5 h", "setting": "in vivo [1]; tracer uptake, large intestine", "value": "0.06 ± 0.01", "unit": "%ID/g"}, {"measurement": "tissue uptake at 1.5 h", "setting": "in vivo [1]; tracer uptake, liver", "value": "0.2 ± 0.01", "unit": "%ID/g"}, {"measurement": "tissue uptake at 1.5 h", "setting": "in vivo [1]; tracer uptake, lung", "value": "0.1 ± 0.02", "unit": "%ID/g"}, {"measurement": "tissue uptake at 1.5 h", "setting": "in vivo [1]; tracer uptake, muscle", "value": 0.01, "unit": "%ID/g"}, {"measurement": "tissue uptake at 1.5 h", "setting": "in vivo [1]; tracer uptake, small intestine", "value": 0.04, "unit": "%ID/g"}, {"measurement": "tissue uptake at 1.5 h", "setting": "in vivo [1]; tracer uptake, spleen", "value": "0.11 ± 0.02", "unit": "%ID/g"}, {"measurement": "tissue uptake at 1.5 h", "setting": "in vivo [1]; tracer uptake, stomach", "value": "0.04 ± 0.01", "unit": "%ID/g"}, {"measurement": "tissue uptake at 1.5 h", "setting": "in vivo [1]; tracer uptake, tumor", "value": "0.08 ± 0.04", "unit": "%ID/g"}, {"measurement": "SUV at 1.5 h", "setting": "in vivo [2]", "value": "0.19 ± 0.03", "unit": "SUV"}, {"measurement": "tissue uptake at 1.5 h", "setting": "in vivo [3]; blood", "value": "0.09 ± 0.03", "unit": "%ID/g"}, {"measurement": "tissue uptake at 1.5 h", "setting": "in vivo [3]; fat", "value": 0.01, "unit": "%ID/g"}, {"measurement": "tissue uptake at 1.5 h", "setting": "in vivo [3]; heart", "value": "0.04 ± 0.01", "unit": "%ID/g"}, {"measurement": "tissue uptake at 1.5 h", "setting": "in vivo [3]; kidney", "value": "1.38 ± 0.13", "unit": "%ID/g"}, {"measurement": "tissue uptake at 1.5 h", "setting": "in vivo [3]; large intestine", "value": "0.06 ± 0.02", "unit": "%ID/g"}, {"measurement": "tissue uptake at 1.5 h", "setting": "in vivo [3]; liver", "value": "0.08 ± 0.02", "unit": "%ID/g"}, {"measurement": "tissue uptake at 1.5 h", "setting": "in vivo [3]; lung", "value": "0.1 ± 0.01", "unit": "%ID/g"}, {"measurement": "tissue uptake at 1.5 h", "setting": "in vivo [3]; muscle", "value": 0.02, "unit": "%ID/g"}, {"measurement": "tissue uptake at 1.5 h", "setting": "in vivo [3]; small intestine", "value": "0.07 ± 0.01", "unit": "%ID/g"}, {"measurement": "tissue uptake at 1.5 h", "setting": "in vivo [3]; spleen", "value": "0.05 ± 0.01", "unit": "%ID/g"}, {"measurement": "tissue uptake at 1.5 h", "setting": "in vivo [3]; stomach", "value": "0.06 ± 0.01", "unit": "%ID/g"}, {"measurement": "tissue uptake at 1.5 h", "setting": "in vivo [3]; tumor", "value": "0.27 ± 0.05", "unit": "%ID/g"}, {"measurement": "accumulation in the kidneys", "setting": "[4]", "value": "1.3-1.6 ID%/g"}, {"measurement": "uptake in the liver", "setting": "[4]", "value": "0.08-0.28 ID%/g"}, {"measurement": "SUVmean of tumor", "setting": "HT1080 tumors (APN/CD13); CB17 SCID, mouse, in vivo, iv, 5.5 MBq, 1.5 h", "value": "0.10 ± 0.05"}, {"measurement": "remaining at 2 h", "setting": "in vitro", "value": "> 99", "unit": "%"}, {"measurement": "SUV at 1.5 h", "setting": "in vivo [5]", "value": "0.07 ± 0.03", "unit": "SUV"}, {"measurement": "SUVmean of tumor", "setting": "[6]; C57BL/6, mouse, in vivo, iv, 5.5 MBq, 1.5 h", "value": "0.36 ± 0.05"}]}
{"smiles": "CCCCC[C@H](CC(=O)NO)C(=O)N[C@H](C(=O)N1CCC[C@H]1CO)C(C)C", "note": "[actinonin]", "values": [{"measurement": "T/M ID%/g, treated animals", "setting": "B16-F10 tumor", "value": "1.71±1.45"}, {"measurement": "antitumor effect", "setting": "AKR tumor", "value": "full antitumor effect"}, {"measurement": "tumor growth of APN/CD13-positive leukemia", "setting": "[7]", "value": "blocked the tumor growth"}, {"measurement": "antitumor effect", "setting": "human lymphoma", "value": "not seen"}, {"measurement": "growth of APN/CD13-negative lymphomas", "setting": "[8]", "value": "arrested the growth"}, {"measurement": "expression of APN/CD13 in tumor vs untreated", "setting": "APN/CD13", "value": "significantly lower"}, {"measurement": "T/M ID%/g, treated animals", "setting": "HT1080 tumor", "value": "15.27±5.52"}, {"measurement": "T/M SUVmean ratio of treated tumor", "setting": "HT1080 tumors (APN/CD13); [9]", "value": "2.25 ± 1.0"}, {"measurement": "^68Ga-NODAGA-c(NGR) SUVmean of treated tumor", "setting": "HT1080 tumors (APN/CD13); HT1080, day 5, ip daily from day 3 (bestatin 15 mg/kg, actinonin 5 mg/kg)", "value": "0.08 ± 0.04"}, {"measurement": "T/M SUVmean ratio of treated tumor", "setting": "HT1080 tumors (APN/CD13); [10]", "value": "15.57 ± 4.0"}, {"measurement": "^68Ga-NODAGA-c(NGR) SUVmean of treated tumor", "setting": "HT1080 tumors (APN/CD13); HT1080, day 10, ip daily 7 days (bestatin 15 mg/kg, actinonin 5 mg/kg)", "value": "0.11 ± 0.05"}, {"measurement": "tumor volume", "setting": "HT1080 tumors; HT1080, day 3 (start of treatment)", "value": "49.1 ± 2.0", "unit": "mm^3"}, {"measurement": "tumor volume", "setting": "HT1080 tumors; [9]", "value": "68.08 ± 2.5", "unit": "mm^3"}, {"measurement": "tumor volume", "setting": "HT1080 tumors; [10]", "value": "136.0 ± 8.5", "unit": "mm^3"}, {"measurement": "tumor volume", "setting": "B16-F10 tumors; B16-F10, day 3 (start of treatment)", "value": "49.0 ± 2.7", "unit": "mm^3"}, {"measurement": "tumor volume", "setting": "B16-F10 tumors; [11]", "value": "59 ± 4.9", "unit": "mm^3"}, {"measurement": "tumor volume", "setting": "B16-F10 tumors; [12]", "value": "56.1 ± 2.1", "unit": "mm^3"}, {"measurement": "T/M ratio of treated tumor", "setting": "[6]; [11]", "value": "0.75 ± 0.15"}, {"measurement": "^68Ga-NODAGA-c(NGR) SUVmean of treated tumor", "setting": "[6]; B16-F10, day 5, ip daily from day 3 (bestatin 15 mg/kg, actinonin 5 mg/kg)", "value": "0.02 ± 0.001"}, {"measurement": "T/M ratio of treated tumor", "setting": "[6]; [12]", "value": "0.74 ± 0.05"}, {"measurement": "^68Ga-NODAGA-c(NGR) SUVmean of treated tumor", "setting": "[6]; B16-F10, day 10, ip daily 7 days (bestatin 15 mg/kg, actinonin 5 mg/kg)", "value": "0.02 ± 0.001"}]}
